# Reference: the supplement of paper PMC12042874
# ± gives the uncertainty stated by the source.
# Assay: amyloid nucleation score (Sup35N fusion, yeast selection) (log enrichment); library NNK2; higher = more nucleation; inactive = no reads after selection
# In short: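 Sup35N fusions to peptides of 20 random codons were expressed in psi-negative yeast, induced 24 hours with 100 μM copper sulfate, and grown 7 days at 30°C on medium lacking adenine and uracil. Input and output plasmid inserts were sequenced by Illumina. The nucleation score is the DiMSum log enrichment of output over input reads, centred on the mode score of non-aggregating sequences. Sequences with under 100 input reads were excluded.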
row,Substance,amyloid nucleation score
1,GHVHQNLMRLVNFSKKSTSL,4.95 ± 0.055
2,NCNRYRMRTKFRRSYMGSVR,0.157 ± 0.28
3,SVVSGWWVIIFLYSHGVSIE,0.093 ± 0.8
4,IRYWSMLLEVG,5.683 ± 0.046
5,YKLYTFCKSRMHVPAYGFSY,-1.96 ± 1.1
6,LKVISTCLRWQHASLPCQ,0.822 ± 0.43
7,GVDFKVVTKSWIIYNYIIGM,3.07 ± 0.064
8,GKIKTVFWSKDLRFVFIMCV,-0.633 ± 0.48
9,FKAHIR,inactive
10,RVTNLIHQLRVPKIGKSGFA,0.294 ± 0.23
11,VNFYSALSSDNTRMYWLLTV,-0.898 ± 1.1
12,SYMCKAHKRLIIGGKWINGW,-0.031 ± 0.53
13,SLDGGPAVVEEATFRGSMAF,-0.567 ± 1.1
14,GLSDQKGTVALRFFYFDFYS,2.73 ± 0.074
15,MRVLFIDYKTVRYCDDL,-1.03 ± 1.1
16,LKYIPRWVGTSLLQRKLCDF,-0.711 ± 1.1
17,LPGMNTIILD,2.17 ± 0.081
18,SQVTISHSNEHMVGACAVYR,-0.456 ± 0.54
19,NARCMCWSGINLVTWYLLKE,7.145 ± 0.04
20,KWLND,0.205 ± 0.41
21,THWSCSSKLFGEFGWNFVWK,2.89 ± 0.067
22,GCRGHFMYRTW,inactive

row,Substance,amyloid nucleation score
1,MYWFGTVHQFRKFSENHRMF,0.721 ± 0.8
2,KPRMWIYIFMAWEAYPAYI,inactive
3,TSVVNLNRMAFKTKFLQNTI,-1.1 ± 1.1
4,WELKAHVDV,0.737 ± 0.54
5,DRSSMTG,0.698 ± 0.21
6,RWDCLQLLISSCFFDMDGCG,-0.668 ± 0.64
7,NMWTFRSIMIPALFYEIFIA,-1.75 ± 0.54
8,MVVRDL,-0.536 ± 1
9,PFSWVASDNTYQSTSLSIVH,0.995 ± 0.51
10,LEPYLS,-0.48 ± 0.49
11,TSPNFLSRLQVRYYRIRVSL,-0.026 ± 0.35
12,QFSYLYLVMASRSLTAVIIV,-0.887 ± 0.3
13,VGGQRHWYLYHDSLHFPQLE,0.396 ± 0.62
14,CIFWVRCKFYGNLNFGCLYD,7 ± 0.078
15,PPLYSFVQYMRGFANNVISG,0.227 ± 0.49
16,SCSWLLSEIGCESVEIRRTV,5.51 ± 0.082
17,VYRNNL,-1.84 ± 1.1
18,YPITPFQA,-0.872 ± 1.1
19,EGAVLRLALGVGTNLNQLSV,0.098 ± 0.37
20,LTWICEFGRSFFSWICVMIG,0.856 ± 0.14
21,LTSSRRF,5.724 ± 0.037
22,IPRIDDSDLFRTLDF,-0.52 ± 1.1

row,Substance,amyloid nucleation score
1,RSGWVEPSNITVIWVKMLVQ,0.166 ± 0.55
2,CTYVYESRHQGIGVLASLSN,-0.784 ± 0.76
3,MAYWESTVIYYIDWEWDSLV,-1.16 ± 0.39
4,WWQGI,-0.168 ± 1.1
5,EAVNGWALLHIVSQ,0.111 ± 0.33
6,ETGSRGAN,0.263 ± 0.25
7,SFRLISRVLRCNMIQ,-0.881 ± 0.37
8,YAHRTSTA,0.342 ± 0.62
9,VACVAHNTHYELTQQSYIYY,5.609 ± 0.046
10,PTSFLKSIVGVIWISANLSR,0.696 ± 0.43
11,VESLRLRRSMVRNLILSSSC,-0.125 ± 0.63
12,CFKLTNINAL,inactive
13,TMSGCSLLCWEYNASQDLSN,-0.071 ± 0.62
14,GYSLYVYIMDFFTWGNRVII,2.02 ± 0.19
15,VIKTG,inactive
16,CRRGDLKDDEIYAMHLHRVS,-1.12 ± 0.78
17,VDNIVHMWDRNWSPGRYMDR,-0.679 ± 0.44
18,RYYLNL,3.83 ± 0.091
19,KLAYIAMTVSITGFDPCAWD,2.55 ± 0.068
20,VLEFFLKSSF,3.1 ± 0.14
21,CDFLWWPTQFANRRTKVGVW,0.083 ± 0.76
22,NVAHGW,-0.322 ± 0.44

row,Substance,amyloid nucleation score
1,VCIRVRRDRKVMWDWSV,1.5 ± 0.24
2,LSDRRFKDLMSTFRNAATYF,6.34 ± 0.047
3,ALWCRENFINCYIPYLQMFF,6.219 ± 0.036
4,PSIKCTLFYSVTYLFMWGRK,-0.406 ± 0.63
5,MKYSSFINLLPTTWQHYTMN,-0.119 ± 0.65
6,DCRVGSLSAGRQLSARAAGK,0.633 ± 0.41
7,FYRNLLTFFYGVSFN,-0.807 ± 1
8,VIYLIGSHYTLVSNRLYEIG,8.186 ± 0.08
9,ATARS,0.701 ± 0.29
10,RVVQPKFMLGVQYSAIQFNS,2.47 ± 0.089
11,PLISRYDYFVCIRILSHSDN,0.98 ± 0.81
12,VFKRNQ,0.769 ± 0.41
13,SFAIIS,0.077 ± 0.65
14,FGKNLTRMSDGGTVVPLRRN,0.255 ± 0.8
15,LGYRRSCEQGWGMLLGNYSH,inactive
16,IIVFKEESYIYKTRSVLGSR,-0.503 ± 0.56
17,RQVANWAVVIGNPMVMNPEG,-0.295 ± 0.63
18,IILTVNRRMDLEGYFYFMFE,-0.93 ± 1
19,LVHFVVSALKT,inactive
20,WHKFGNNRANEGRYIMHLMH,-0.282 ± 0.48
